Laboratory results as given in patent publication US6660715B2, “Nonaqueous solutions and suspensions of macromolecules for pulmonary delivery” (Massachusetts Institute of Technology, priority 1998, dated 2003).

System: M. lysodeikticus
Test: Lysozyme activity after aerosolization from ethanol (standard assay against dried cells of M. lysodeikticus)
Format: biochemical
Description: […] The reservoir containing the ethanol solution was connected via a plastic tube to a collecting test tube placed in an ice booth to facilitate condensation of the solution. The nebulization was started and continued for 5 minutes. As a result, about one mL of the ethanol solution was collected in the test tube (i.e. was aerosolized). No solution was collected with the nebulizer switched off. The lysozyme activity of the nebulized solution was measured using the standard assay against dried calls of M. lysodeikticus. (Shugar, Biochim. Biophys. Acta 8, 302 (1952)).

Substance: lysozyme: hen egg-white lysozyme (a model protein)
- specific activity of the nebulized solution relative to the initial enzyme solution (0.1 mg/ml solution in ethanol, compressor nebulizer, 5 minutes): the same, (±10%) as that of the initial enzyme solution
- loss of enzymatic activity upon aerosolization (dispersion in ethanol at 1 mg/ml): no appreciable loss of enzymatic activity
- loss of enzymatic activity upon aerosolization (dispersion in ethanol at 10 mg/ml): no appreciable loss of enzymatic activity
